Reference: the supplement of paper PMC10567573

B1: CDC14A (parent)
chain: LWVQGDIFRSKLKNRPSSEGSINK
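Also: lentivirally expressed fusions sorted by FACS into six bins by GFP to DsRed ratio, PSI derived from sequencing read proportions per bin multiplied by bin number.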

Variants of: B1
Assay: protein stability index of a GFP-peptide fusion (GPS, HEK-293T) (PSI 1-6); higher = more stable
Settings: c terminus: a fixed tail appended
Work on E19F yielded a protein stability index of 1.7.
E19N showed a protein stability index of 2.48.
For E19V, the protein stability index was 2.17.
For E19R, the protein stability index was 2.35.
E19Y gave a protein stability index of 1.58.
Variant E19H has a protein stability index of 2.36.
With E19Q the protein stability index was 2.49.
Work on E19I yielded a protein stability index of 2.24.
In the case of S18G, the protein stability index is reported as 4.75.
In the case of S18A, the protein stability index is reported as 2.58.
Work on S18W yielded a protein stability index of 1.46.
Work on S18L yielded a protein stability index of 3.55.
S18F showed a protein stability index of 2.37.
Variant S18I has a protein stability index of 1.84.
Variant G5I has a protein stability index of 2.35.
G5V gave a protein stability index of 1.53.
In the case of G5N, the protein stability index is reported as 2.63.
For G5C, the protein stability index was 2.3.
I7Y showed a protein stability index of 2.66.
Work on I7R yielded a protein stability index of 2.31.
I7N showed a protein stability index of 3.82.
I7W showed a protein stability index of 1.71.
I7M gave a protein stability index of 2.31.
Variant K11F has a protein stability index of 2.3.
K11V showed a protein stability index of 2.36.
K11Q gave a protein stability index of 2.33.
For K11L, the protein stability index was 2.23.
K11H showed a protein stability index of 2.69.
Work on K11S yielded a protein stability index of 2.99.
With K11G the protein stability index was 3.68.
K11A showed a protein stability index of 2.26.
In the case of K11P, the protein stability index is reported as 3.22.
Variant G20A has a protein stability index of 2.06.
In the case of G20T, the protein stability index is reported as 2.85.
Variant G20E has a protein stability index of 3.9.
In the case of G20L, the protein stability index is reported as 2.69.
Work on G20H yielded a protein stability index of 2.74.
G20R showed a protein stability index of 2.76.
For L12G, the protein stability index was 2.83.
Work on L12R yielded a protein stability index of 2.22.
For L12A, the protein stability index was 3.21.
Variant L12T has a protein stability index of 3.17.
L12W gave a protein stability index of 2.42.
L12M gave a protein stability index of 2.41.
L12P gave a protein stability index of 3.09.
For L12Y, the protein stability index was 2.61.
In the case of L12H, the protein stability index is reported as 2.71.
With L12E the protein stability index was 3.51.
L12N showed a protein stability index of 2.82.
Variant L12D has a protein stability index of 2.83.
Variant V3G has a protein stability index of 3.18.
V3N gave a protein stability index of 2.71.
V3S showed a protein stability index of 3.06.
In the case of V3M, the protein stability index is reported as 2.73.
In the case of V3R, the protein stability index is reported as 3.34.
For V3L, the protein stability index was 2.07.
V3T showed a protein stability index of 3.12.
Variant V3H has a protein stability index of 1.99.
With V3Y the protein stability index was 2.89.
Work on V3E yielded a protein stability index of 4.85.
Work on V3D yielded a protein stability index of 3.58.
With I22P the protein stability index was 2.63.
Variant I22L has a protein stability index of 2.79.
Variant I22W has a protein stability index of 2.33.
For I22V, the protein stability index was 2.81.
In the case of I22N, the protein stability index is reported as 3.05.
I22Q showed a protein stability index of 2.71.
I22E gave a protein stability index of 2.97.
I22G showed a protein stability index of 3.21.
Work on I22K yielded a protein stability index of 2.06.
Work on I22F yielded a protein stability index of 2.51.
Variant R15L has a protein stability index of 2.92.
With R15F the protein stability index was 2.39.
With R15T the protein stability index was 3.26.
In the case of R15W, the protein stability index is reported as 2.25.
In the case of R15C, the protein stability index is reported as 2.54.
R15N gave a protein stability index of 2.57.
Work on R15M yielded a protein stability index of 2.07.
Variant R15H has a protein stability index of 2.62.
For Q4E, the protein stability index was 2.19.
Q4F showed a protein stability index of 1.73.
With Q4C the protein stability index was 2.46.
For Q4I, the protein stability index was 2.11.
With K13N the protein stability index was 2.31.
With K13C the protein stability index was 2.2.
Work on K13D yielded a protein stability index of 2.87.
Work on K13Q yielded a protein stability index of 2.69.
In the case of K13L, the protein stability index is reported as 2.94.
In the case of D6Q, the protein stability index is reported as 1.99.
Variant D6V has a protein stability index of 1.43.
With D6G the protein stability index was 2.64.
Work on D6M yielded a protein stability index of 2.61.
With D6L the protein stability index was 1.71.
S17G showed a protein stability index of 2.87.
S17P showed a protein stability index of 2.41.
For S17V, the protein stability index was 2.47.
Variant S17M has a protein stability index of 1.83.
With S17F the protein stability index was 1.66.
Work on S17N yielded a protein stability index of 3.48.
In the case of W2R, the protein stability index is reported as 3.46.
W2Q showed a protein stability index of 4.28.
W2K showed a protein stability index of 3.74.
With W2G the protein stability index was 4.04.
With W2M the protein stability index was 3.48.
In the case of W2E, the protein stability index is reported as 5.28.
W2H gave a protein stability index of 3.81.
Variant W2N has a protein stability index of 4.07.
In the case of L1A, the protein stability index is reported as 3.37.
For L1S, the protein stability index was 4.05.
L1H showed a protein stability index of 3.37.
In the case of L1P, the protein stability index is reported as 3.75.
With L1W the protein stability index was 2.3.
L1M gave a protein stability index of 2.79.
Variant L1C has a protein stability index of 3.69.
R9I gave a protein stability index of 2.4.
R9Y showed a protein stability index of 2.37.
R9N showed a protein stability index of 3.4.
Work on R9G yielded a protein stability index of 2.56.
For R9V, the protein stability index was 2.65.
For R9T, the protein stability index was 2.85.
R9D showed a protein stability index of 3.68.
Work on R9E yielded a protein stability index of 3.21.
For R9A, the protein stability index was 3.05.
With K24T the protein stability index was 2.83.
With K24Q the protein stability index was 2.41.
In the case of K24N, the protein stability index is reported as 2.79.
Work on K24G yielded a protein stability index of 2.26.
In the case of F8D, the protein stability index is reported as 3.67.
With F8V the protein stability index was 3.06.
With F8A the protein stability index was 3.43.
F8E showed a protein stability index of 4.43.
F8N gave a protein stability index of 3.01.
In the case of F8H, the protein stability index is reported as 2.97.
F8S gave a protein stability index of 3.34.
F8G showed a protein stability index of 3.01.
For F8M, the protein stability index was 2.42.
Variant F8K has a protein stability index of 3.23.
With F8Y the protein stability index was 3.25.
Variant F8R has a protein stability index of 2.92.
Variant N14P has a protein stability index of 2.45.
Variant N14E has a protein stability index of 2.7.
Variant N14W has a protein stability index of 2.15.
N14M gave a protein stability index of 2.
N14K showed a protein stability index of 2.55.
For N14H, the protein stability index was 2.26.
Work on N14R yielded a protein stability index of 1.91.
For N14I, the protein stability index was 2.43.
S10E gave a protein stability index of 2.44.
Work on S10V yielded a protein stability index of 2.92.
With S10W the protein stability index was 1.54.
With S10G the protein stability index was 3.17.
With S21Y the protein stability index was 2.22.
With S21G the protein stability index was 2.84.
S21R gave a protein stability index of 1.73.
In the case of S21C, the protein stability index is reported as 2.64.
With P16C the protein stability index was 1.92.
With P16Q the protein stability index was 2.5.
Variant P16V has a protein stability index of 1.64.
Work on P16F yielded a protein stability index of 2.49.
In the case of P16E, the protein stability index is reported as 3.38.
With P16D the protein stability index was 2.89.
Variant N23E has a protein stability index of 2.89.
N23I gave a protein stability index of 2.15.
In the case of N23Q, the protein stability index is reported as 2.31.
N23H showed a protein stability index of 2.65.
N23P gave a protein stability index of 3.06.
N23T showed a protein stability index of 3.06.
